Source: patent US20190031761A1

Tests used:
[1] = target: EGFRvIII recombinant protein (rhEGFRvIII protein) used in ELISA (human) (UniProt P00533); experiment: concentration-dependent ELISA in triplicate, Prism nonlinear regression (apparent affinity)
[2] = target: T1, EGFRvIII-specific peptide (…); experiment: as above
T1 sequence (peptide): LEEKKGNYVVTDHC

Kd [1]: 2.35 nM | Kd [2]: 0.272 nM
B1: B4A3 scFv protein (anti-EGFRvIII scFv) (scFv, part only; not given: scFv linker, domain order, tags, V domains shown, not shown: another chain or arm of the molecule; small tags and cut ends)
VH: EVQLLESGGGLVQPGGSLRLSCAASGFTFSNYYMSWVRQAPGKGLEWVSGTSPNGGSKYYADSVKGRFTISRDNSKNTLYLQMNSLRAEDTAVYYCAKGRRKLRATRFDYWGQGTLVTVSS
VL: QSVLTQPPSASGTPGQRVTISCTGSSSNIGNNYVSWYQQHPGTAPKLLIYSDSNRPSGVPDRFSGSKSGTSASLAISGLRSEDEADYYCATWDASLSAYVFGGGTKLTVL
